We go through 4 molecules from patent publication US20140096274A1 (published 2014).

The labels stand for the following.
T1: human RANK-Fc (human, UniProt Q9Y6Q6 30-212)
T1 construct: also called hRANK-Fc; hRANK-FC; not shown: Fc part of the bought fusion; not described
T1 sequence (looked up): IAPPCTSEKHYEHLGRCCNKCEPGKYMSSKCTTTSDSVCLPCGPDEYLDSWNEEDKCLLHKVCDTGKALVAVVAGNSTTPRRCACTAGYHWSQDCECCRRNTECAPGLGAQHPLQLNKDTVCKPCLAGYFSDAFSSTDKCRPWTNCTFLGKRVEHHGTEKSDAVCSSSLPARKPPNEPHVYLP

T2: murine RANKL heterodimeric variant mD2 (mouse Dimer 2) (mouse, UniProt O35235 160-316; O35235 160-316)
T2 construct: range 160-316; Heterodimer of monomer A (His-tagged) and monomer B, co-expressed in E. coli; also called RANKL dimer 2; dRANKL D2; not shown: hexahistidine-tag fused to monomer A
T2 sequence (looked up) 1: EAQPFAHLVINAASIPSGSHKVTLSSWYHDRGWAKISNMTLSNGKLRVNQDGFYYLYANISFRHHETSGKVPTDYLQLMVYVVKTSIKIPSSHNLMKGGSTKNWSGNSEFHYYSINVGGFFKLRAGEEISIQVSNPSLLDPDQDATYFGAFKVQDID
T2 sequence (looked up) 2: T2 sequence (looked up) 1 with F53Y, S61C, K97D, Y112F, F120Y

T3: murine RANKL heterodimeric variant mD1 (mouse Dimer 1) (mouse, UniProt O35235 160-316; O35235 160-316)
T3 construct: range 160-316; Heterodimer of monomer A (His-tagged) and monomer B, co-expressed in E. coli; also called RANKL dimer 1; RANK-L Dimer 1; not shown: hexahistidine-tag fused to monomer A
T3 sequence (looked up) 1: T2 sequence (looked up) 1 with V9T, K35D, K70S
T3 sequence (looked up) 2: T2 sequence (looked up) 1 with V9T, F53Y, S61C, K70S, K97D, Y112F, F120Y

B1: trimeric human RANKL WT (E. coli produced, R&D Systems) (ligand, UniProt O14788 140-317, looked up)
chain: IRAEKAMVDGSWLDLAKRSKLEAQPFAHLTINATDIPSGSHKVSLSSWYHDRGWAKISNMTFSNGKLIVNQDGFYYLYANICFRHHETSGDLATEYLQLMVYVTKTSIKIPSSHTLMKGGSTKYWSGNSEFHFYSINVGGFFKLRSGEEISIEVSNPSLLDPDQDATYFGAFKVRDID
notes: Bought protein; also called hWT
B2: murine RANK-Fc (Fc fusion, mouse, UniProt O35305 31-214, looked up)
chain: VTPPCTQERHYEHLGRCCSRCEPGKYLSSKCTPTSDSVCLPCGPDEYLDTWNEEDKCLLHKVCDAGKALVAVDPGNHTAPRRCACTAGYHWNSDCECCRRNTECAPGFGAQHPLQLNKDTVCTPCLLGFFSDVFSSTDKCKPWTNCTLLGKLEAHQGTTESDVVCSSSMTLRRPPKEAQAYLPS
notes: also called mRANK-Fc; mRANK-FC; not shown: Fc part of the bought fusion; not described
B3: human RANKL heterodimeric variant hD1-3 (ligand)
chain 1: MGSSHHHHHHSQDPEAQPFAHLTINATDIPSGSHKVSLSSWYHDRGWADISNMTFSNGKLIVNQDGFYYLYANISFRHHETSGDLATEYLQLMVYVTKTSEKIPSSHTLMKGGSTKYWSGNSEFHYYSINVGGFFKLRSGEEISIEVSNPSLLDPDQDATYFGAFKVRDID
chain 2: MEAQPFAHLTINATDIPSGSHKVSLSSWYHDRGWAKISNMTFSNGKLIVNQDGYYYLYANICFRHHETSGDLATEYLQLMVYVTKTSEKIPSSHTLMDGGSTKYWSGNSEFHFYSINVGGYFKLRSGEEISIEVSNPSLLDPDQDATYFGAFKVRDID
notes: Heterodimer expressed in E. coli BLR (DE3); copies: 1 + 1
B4: human RANKL heterodimeric variant hD2-3 (ligand)
chain 1: B3 chain 1 with T23V, D49K, D84K
chain 2: B3 chain 2 with T10V, D71K
notes: Heterodimer expressed in E. coli BLR (DE3); also called hRANKL D2.3; copies: 1 + 1

The target of the experiment “murine RANK-Fc” is B2. The experiment in a line: SPR (Biacore T100) single cycle kinetics, mRANK-Fc captured on protein A at 200 RU, 1:1 fit. How it is done: (§1) FIG. 35. Binding of dimeric human RANKL variants and human RANKL WT towards murine RANK at 37° C. (left) or human RANK (right) receptor. Receptors were captured at a level of 200 RU using a Protein A (Sigma) modified surface of a CM5 chip (Biacore GE Lifesciences). Receptor binding curves of purified human hD1.3 and hD2.3 variants and human RANKL WT (E. coli produced, R&D systems) were recorded in real time using the single cycle kinetics method (Biacore) using a Biacore T100 (Biacore, GE Lifescience). Ligands were injected in 5 consecutive injection from 1 nM to 100 nM. After subtracting the signal from the reference channel and buffer injections the resulting binding curves were fitted to a 1:1 interaction model using the BiaEvaluation software (Biacore GE Lifescience). Flow rate was 50 ul/min and protein A surface was regenerated using 10 mM Glycine pH 2 solution, murine RANK-Fc and human RANK-Fc were obtained from R&D systems. Running buffer was HBS-EP+ (Biacore GE Lifescience).
Background: In SPR one partner is held on a chip, and binding of the other changes the refractive index at the surface.

Another experiment has as its target T1, human RANK-Fc. As to the kind of experiment: SPR (Biacore T100) single cycle kinetics, hRANK-Fc captured on protein A at 200 RU, 1:1 fit. How it is done: as §1
Experiment [1] concerns the target T2, murine RANKL heterodimeric variant mD2 …. As to the kind of experiment: SPR, mRANK-Fc captured at low density on C1 chip, 1:1 Langmuir fit, mean of three experiments. Here is the method:
(§2) SPR measurements were performed using ˜1500-2000 RU of captured mRANK-Fc on the surface of a CM5 sensor chip (FIGS. 15B and C). This is a density that results in a mean ratio of RANKL:RANK of approx 1:3 (52). […] (Table 5, below) In contrast, the ratio of binding of RANKL variants mD1 and mD2 to mRANK-Fc seems hardly to be affected by receptor density (Table 5). The values obtained after injecting 500 nM of the dimeric variants correlate to binding of 1.5 monomeric subunits by mD1 and 1.6 monomeric subunits by mD2.
(§3) Kinetic binding parameters were also measured for mD1 and mD2 binding to mRANK-FC in real time using SPR using murine RANKL-WT as a control (FIG. 15; table 8). RANKL dimer binding curves to mRANK-Fc captured at low density on the surface of a C1 sensorchip were recorded using concentrations ranging from 100 pM to 562 nM. At very low receptor density, RANKL proteins bind only one receptor molecule, allowing the data to be fitted to a Langmuir 1:1 interaction model (29). RANKL WT needed a very low density (<20 resonance units (RU)) to come close to a 1:1 ratio (FIG. 3A). […] Maximum binding of 5.5 RU is reached, which is slightly lower than the expected Rₘₐₓ value of 6.8 RU for a 1:1 ratio, but definitely larger than 3.4 RU, the Rₘₐₓ value expected for a binding ratio of 2 molecules of RANK per flag-mRANKL WT trimer. Similar to mRANKL WT, binding of RANKL mD1 or mD2 to mRANK-Fc results in slightly lower Rₘₐₓ values than expected for a 1:1 binding ratio: 24 RU D1 compared to 26 RU, and 20 RU D2 compared to 23 RU (FIG. 15A). These binding ratio's could be reached with mD1 and mD2 at densities of mRANK-Fc of <50 RU. The approximate 1:1 binding of RANKL proteins to mRANK-Fc allows fitting the data to the 1:1 Langmuir binding model.

Experiment [2] concerns the target T3, murine RANKL heterodimeric variant mD1 …. Described as above. Here is the method: as §2, §3
For experiment [3], the target named is T2, murine RANKL heterodimeric variant mD2 …. As to the kind of experiment: SPR single cycle kinetics, mRANK-Fc captured at 20-40 RU, 1:1 fit. How it is done: (§4) Considering the high similarity between human RANKL and murine RANKL (>88%) the murine dimers were also tested for hRANK binding. Binding to hRANK-Fc and mRANK-Fc (both from R&D Systems) was recorded for five consecutive concentrations of murine flag RANKL WT, D1 (mD1) or D2 (mD2) (˜0.3-15 nM) using SPR with a single cycle kinetics based approach. The capture level of mRANK-Fc and hRANK-Fc was low (20-40 RU) in order to ensure 1:1 binding. Both WT and the D1 and D2 dimeric variants bound with high affinity towards the mRANK receptor and to the human RANK receptor (FIG. 16: Table 8).

Experiment [4] addresses T3, murine RANKL heterodimeric variant mD1 …. The experiment is described as above. Here is the method: as §4

As usually defined, the Kd is the free concentration of one partner at which half of the binding sites on the other are occupied at equilibrium, for simple one-to-one binding. A low value points to a tighter complex. The term koff denotes the rate constant with which the complex falls apart. The low end stands for a long-lived complex, the high end for a short-lived complex. By kon is commonly meant the rate constant with which the complex forms.

Numbering of substitutions follows the chain as printed.

Consider B1, for which, in the experiment with murine RANK-Fc, the affinity, expressed as Kd, was 0.136 nM; the koff was 0.000142 s⁻¹; the kon was found to be 1.04e+06 M⁻¹ s⁻¹. In addition, in the experiment with human RANK-Fc, the Kd was found to be 0.267 nM, the koff worked out at 0.00023 s⁻¹ and the kon came out at 861000 M⁻¹ s⁻¹.
On to B2, for which, in experiment [1], the Ka is 2.1e+11 M⁻¹, the Kd stood at 0.01 nM, the koff amounted to 4.3e-05 s⁻¹ and the kon was 4.9e+06 M⁻¹ s⁻¹. In experiment [2], this molecule yielded a Ka of 2.7e+10 M⁻¹, a Kd of 0.146 nM, a koff of 0.00015 s⁻¹ and a kon of 5.8e+06 M⁻¹ s⁻¹. In experiment [3], this molecule displayed a Kd of 0.00855 nM, an off-rate constant (koff) of 5.76e-05 s⁻¹ and a kon of 6.73e+06 M⁻¹ s⁻¹. In experiment [4], this molecule had a Kd of 0.0439 nM, a koff of 0.000247 s⁻¹ and a kon of 5.93e+06 M⁻¹ s⁻¹.
For the molecule B3, in the experiment with murine RANK-Fc, the affinity, expressed as Kd, was 0.211 nM; the koff is 0.00019 s⁻¹; the kon was found to be 899000 M⁻¹ s⁻¹. In the experiment with human RANK-Fc, the Kd worked out at 0.345 nM, the koff stood at 0.000275 s⁻¹ and the kon came out at 798000 M⁻¹ s⁻¹.
In the experiment with murine RANK-Fc, B4 showed a Kd of 0.0504 nM, a koff of 8.32e-05 s⁻¹ and a kon of 1.65e+06 M⁻¹ s⁻¹. Also, in the experiment with human RANK-Fc, the Kd stood at 0.0766 nM, the koff is 8.87e-05 s⁻¹ and the kon came out at 1.16e+06 M⁻¹ s⁻¹.
